This note sets out measurements from the RNAGym collection of RNA variant scans (doi:10.1093/molbev/msab373).

The chains are these.
B1: Azoarcus group I ribozyme (parent)
chain: GUGCCUUGCGCCGGGAAACCACGCAAGGGAUGGUGUCAAAUUCGGCGAAACCUAAGCGCCCGCCCGGGCGUAUGGCAACGCCGAGCCAAGCUUCGGCGCCUGCGCCGAUGAAGGUGUAGAGACUAGACGGCACCCACCUAAGGCAAACGCUAUGGUGAAGGCAUAGUCCAGGGAGUGGCGAAAGUCACACAAACCGG

In the series the parent is B1. As to the kind of experiment: reverse-splicing fitness (ratio to wild type); higher = more active; in vitro selection; Mg2+ level not given. Summed up: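 An in vitro group I ribozyme library with randomized positions was T7-transcribed and gel-purified. In triplicate, 10 pmol RNA in EPPS pH 7.5 was reacted with 50 pmoles of a 30-nt RNA substrate for 1 h at 37 °C across several added MgCl2 levels (1–48 mM), then stopped with EDTA. Products were reverse transcribed from a substrate-complementary primer, PCR-amplified and sequenced (HiSeq 4000). Fitness is a variant's read proportion after selection over that before, normalised to wild type.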
Take A111C A120U A145U C150A C169A: the reverse-splicing fitness was determined as 0.00263. As to A111C A120U A145U C150A C169U, the reverse-splicing fitness stood at 0.00653. Regarding A111C A120U A145U C150A C169G, the reverse-splicing fitness came out at 0.00604.

A111C A120U A145U C150G C169A: the reverse-splicing fitness came out at 0.00366. Next, A111C A120U A145U C150G C169G: 0.00663; A111C A120U A145U C150G C169U: 0.00794; A111C A120G C150A C169G: 0.0242. Next, A111C A120G C150A C169U: 0.0203; A111C A120G C150A C169A: 0.0171; A111C A120U C150U C169A U176C: 0.00309. For the variant A111C A120U C150U C169A U176A, the reverse-splicing fitness was 0.00394. To A111C A120U C150U C169A U176G belongs 0.00204; to A111C A120G C150U C169U U176C, 0.0371; to A111C A120G C150U C169U U176G, 0.00549. As to A111C A120G C150U C169U U176A, the reverse-splicing fitness was 0.0337. As for A111C A120G A145U C169G, the reverse-splicing fitness worked out at 0.203. Consider A111C A120G A145U C169U, for which the reverse-splicing fitness stood at 0.174. As for A111C A120G A145U C169A, the reverse-splicing fitness worked out at 0.128. As for A111C A120G C150U U176A, the reverse-splicing fitness was found to be 0.0245. A111C A120G C150U U176G: the reverse-splicing fitness came out at 0.00599. Consider A111C A120G C150U U176C, for which the reverse-splicing fitness is 0.0344. In the case of A111C A120U A145C C150A U176G, the reverse-splicing fitness stood at 0.00735. As to A111C A120U A145C C150A U176A, the reverse-splicing fitness was found to be 0.016. Next, A111C A120U A145C C150A U176C: 0.0101; A111C A120U A145U C150A C169U U176G: 0.00271; A111C A120U A145U C150A C169U U176C: 0.0049. Next, A111C A120U A145U C150A C169U U176A: 0.00386. On to A111C A120U A145U C150U C169A U176G, for which the reverse-splicing fitness was found to be 0.00217. Consider A111C A120U A145U C150U C169A U176C, for which the reverse-splicing fitness turned out to be 0.00252. On to A111C A120U A145U C150U C169A U176A, for which the reverse-splicing fitness was determined as 0.00293.

For A111C A120G C169A U176A, the reverse-splicing fitness came to 0.0221. In the case of A111C A120G C169A U176C, the reverse-splicing fitness came out at 0.0306. Consider A111C A120G C169A U176G, for which the reverse-splicing fitness came out at 0.00418. On to A111C A120U A145C C150G C169G, for which the reverse-splicing fitness was determined as 0.00714. As to A111C A120U A145C C150G C169A, the reverse-splicing fitness is 0.00389. For A111C A120U A145C C150G C169U, the reverse-splicing fitness amounted to 0.0105. As for A111C A120U A145G C169A U176C, the reverse-splicing fitness is 0.00408. Regarding A111C A120U A145G C169A U176G, the reverse-splicing fitness came to 0.00216. To A111C A120U A145G C169A U176A belongs 0.00375. A111C A120U A145C C150U U176C: the reverse-splicing fitness turned out to be 0.0487. For the variant A111C A120U A145C C150U U176G, the reverse-splicing fitness came out at 0.0246. Next, A111C A120U A145C C150U U176A: 0.0649; A111C A120U A145U C150G C169G U176C: 0.00291; A111C A120U A145U C150G C169G U176G: 0.00233. As to A111C A120U A145U C150G C169G U176A, the reverse-splicing fitness was found to be 0.00267. To A111C A120G C169G U176G belongs 0.00449; to A111C A120G C169G U176A, 0.0304. On to A111C A120G C169G U176C, for which the reverse-splicing fitness stood at 0.0444. With A111C A120U A145G C150U U176C, the reverse-splicing fitness came to 0.239. In the case of A111C A120U A145G C150U U176A, the reverse-splicing fitness is 0.184.

Turning to A111C A120U A145G C150U U176G, the reverse-splicing fitness was determined as 0.0303. Take A111C A120U A145C C150G C169U U176A: the reverse-splicing fitness was 0.00402.

Regarding A111C A120U A145C C150G C169U U176C, the reverse-splicing fitness is 0.00313. Take A111C A120U A145C C150G C169U U176G: the reverse-splicing fitness was found to be 0.0023. On to A111C A120U A145U C150U U176C, for which the reverse-splicing fitness came out at 0.215. Next, A111C A120U A145U C150U U176G: 0.0348; A111C A120U A145U C150U U176A: 0.182. To A111C A120U A145C C150A C169A U176C belongs 0.00233; to A111C A120U A145C C150A C169A U176G, 0.00226; to A111C A120U A145C C150A C169A U176A, 0.00259. For A111C A120U C150G C169A, the reverse-splicing fitness turned out to be 0.00675. For A111C A120U C150G C169G, the reverse-splicing fitness is 0.00853. Next, A111C A120U C150G C169U: 0.00955. As for A111C A120U C150A C169A U176G, the reverse-splicing fitness worked out at 0.00239. As to A111C A120U C150A C169A U176C, the reverse-splicing fitness turned out to be 0.00383. For the variant A111C A120U C150A C169A U176A, the reverse-splicing fitness worked out at 0.00602. Next, A111C A120U A145G C150G C169U U176C: 0.00769; A111C A120U A145G C150G C169U U176G: 0.00436.

For A111C A120U A145G C150G C169U U176A, the reverse-splicing fitness was 0.00885. Turning to A111C A120U A145U C169U, the reverse-splicing fitness was 0.0751. A111C A120U A145U C169A: the reverse-splicing fitness was 0.00546. As for A111C A120U A145U C169G, the reverse-splicing fitness was 0.0574.

Take A111C A120U C150G C169U U176G: the reverse-splicing fitness is 0.00276. As to A111C A120U C150G C169U U176A, the reverse-splicing fitness is 0.00446.

Turning to A111C A120U C150G C169U U176C, the reverse-splicing fitness worked out at 0.00564.

On to A111C A120G U176A, for which the reverse-splicing fitness was 0.0401. For the variant A111C A120G U176C, the reverse-splicing fitness amounted to 0.0417.

Regarding A111C A120G U176G, the reverse-splicing fitness worked out at 0.00629. Next, A111C A120U A145C C169G U176G: 0.0018. For the variant A111C A120U A145C C169G U176C, the reverse-splicing fitness stood at 0.00626. With A111C A120U A145C C169G U176A, the reverse-splicing fitness amounted to 0.00676.

For A111C A120U A145C C150A C169G U176G, the reverse-splicing fitness is 0.0024.

With A111C A120U A145C C150A C169G U176C, the reverse-splicing fitness came to 0.00302.
